According to paper PMC12339742:

B1: PduP encapsulation peptide with its native linker fused to the N-terminus of mNeonGreen [Salmonella enterica] / itself (parent)
chain: MNTSELETLIRTILSEQLTTPAQTPVQPQGKGIFQS

Key:
itself [1] = variants of: B1; experiment: turbidity measurement (self-assembly / condensation), NaCl titration; conditions: with itself; value read at the lowest NaCl point (est. ~12-15 mM NaCl); parent: 0.45; read off a plot
itself [2] = variants of: B1; experiment: turbidity measurement (self-assembly / condensation), protein concentration titration; conditions: with itself; value read at the third-highest protein concentration point (est. ~45 µM); parent: 0.45; read off a plot

Row | Variant | response (itself [1]) | response (itself [2])
1 | chain 1 R11A | 0.26 | 0.21
2 | chain 1 R11K | 0.46 | 0.39
3 | chain 1 E7D | 0.37 | 0.21
4 | chain 1 I10S | 0.17 | –
5 | chain 1 E7R R11E | 0.51 | 0.5
